The values that follow come from patent publication US20230087785A1, “Leucine-Rich Repeat Kinase 2 Allosteric Modulators” (VIB VZW, priority 2020, published 2023).

The labels stand for the following.
B1: Nb1: LRRK2-specific Nanobody, SEQ ID NO: 1 (protein)
VHH: MAQVQLVESGGGLVQAGGSLRLSCVASGRIFSGNAMGWYRQAPGRQRELVAGITNGGYTNYRQFVKGRFTISRDNAKRTVYLQMNSLKPEDTAVYYCNALDREARQVDYWGQGTQVTVSS
modifications: Nanobody CA12610
B2: Nb6: LRRK2-specific Nanobody, SEQ ID NO: 2 (protein)
VHH: MAQVQLVESGGGLVQAGGSLRLSCAASGSIFSPTAMGWYRQAPGKERELVAGITSGGYTNYRNFARGRFTISRDNAKKTVYLQMNSLNPEDTAVYYCNTLTISWSWGQGTQVTVSS
modifications: Nanobody CA12618
B3: Nb23: LRRK2-specific Nanobody, SEQ ID NO: 3 (protein)
VHH: MAQVQLVESGGGLVQAGGSLRLSCAASGRTFSRYTMGWFRQAPGKDREFVARITTSGAVTTYADSAKGRFTISRDNAKNTVYLQMNTLKPEDTAVYYCAAGQGQLSSQSRFVDYWGQGTQVTVSS
modifications: Nanobody CA13612
B4: Nb22: LRRK2-specific Nanobody, SEQ ID NO: 9 (protein)
VHH: MAQVQLVESGGGLVQAGGSLRLSCAASGRTFSSYTMGWFRQAPGKEREFVAAIRWSGGSTYYADSVKGRFTISRDNAKNTVYLQMNSLKPEDTAVYYCAASDRGGFIATSGGWMDYWGKGTQVTVSS
modifications: Nanobody CA13611
B5: Nb42: LRRK2-specific Nanobody, SEQ ID NO: 6 (protein)
VHH: MAQVQLVESGGGLVQAGGSLRLSCAASGDVNYAVGWFRQAPRKEREFVAAINWRGDNTDYTDSVKGRFTISRDNAKNTVYLQMNSLKPEDTAVYYCAAKSAPYWYSDIAPDYWGQGTQVTVSS
modifications: Nanobody CA14259

T1 sequence (Q5S007 whole entry R50H/M2397T): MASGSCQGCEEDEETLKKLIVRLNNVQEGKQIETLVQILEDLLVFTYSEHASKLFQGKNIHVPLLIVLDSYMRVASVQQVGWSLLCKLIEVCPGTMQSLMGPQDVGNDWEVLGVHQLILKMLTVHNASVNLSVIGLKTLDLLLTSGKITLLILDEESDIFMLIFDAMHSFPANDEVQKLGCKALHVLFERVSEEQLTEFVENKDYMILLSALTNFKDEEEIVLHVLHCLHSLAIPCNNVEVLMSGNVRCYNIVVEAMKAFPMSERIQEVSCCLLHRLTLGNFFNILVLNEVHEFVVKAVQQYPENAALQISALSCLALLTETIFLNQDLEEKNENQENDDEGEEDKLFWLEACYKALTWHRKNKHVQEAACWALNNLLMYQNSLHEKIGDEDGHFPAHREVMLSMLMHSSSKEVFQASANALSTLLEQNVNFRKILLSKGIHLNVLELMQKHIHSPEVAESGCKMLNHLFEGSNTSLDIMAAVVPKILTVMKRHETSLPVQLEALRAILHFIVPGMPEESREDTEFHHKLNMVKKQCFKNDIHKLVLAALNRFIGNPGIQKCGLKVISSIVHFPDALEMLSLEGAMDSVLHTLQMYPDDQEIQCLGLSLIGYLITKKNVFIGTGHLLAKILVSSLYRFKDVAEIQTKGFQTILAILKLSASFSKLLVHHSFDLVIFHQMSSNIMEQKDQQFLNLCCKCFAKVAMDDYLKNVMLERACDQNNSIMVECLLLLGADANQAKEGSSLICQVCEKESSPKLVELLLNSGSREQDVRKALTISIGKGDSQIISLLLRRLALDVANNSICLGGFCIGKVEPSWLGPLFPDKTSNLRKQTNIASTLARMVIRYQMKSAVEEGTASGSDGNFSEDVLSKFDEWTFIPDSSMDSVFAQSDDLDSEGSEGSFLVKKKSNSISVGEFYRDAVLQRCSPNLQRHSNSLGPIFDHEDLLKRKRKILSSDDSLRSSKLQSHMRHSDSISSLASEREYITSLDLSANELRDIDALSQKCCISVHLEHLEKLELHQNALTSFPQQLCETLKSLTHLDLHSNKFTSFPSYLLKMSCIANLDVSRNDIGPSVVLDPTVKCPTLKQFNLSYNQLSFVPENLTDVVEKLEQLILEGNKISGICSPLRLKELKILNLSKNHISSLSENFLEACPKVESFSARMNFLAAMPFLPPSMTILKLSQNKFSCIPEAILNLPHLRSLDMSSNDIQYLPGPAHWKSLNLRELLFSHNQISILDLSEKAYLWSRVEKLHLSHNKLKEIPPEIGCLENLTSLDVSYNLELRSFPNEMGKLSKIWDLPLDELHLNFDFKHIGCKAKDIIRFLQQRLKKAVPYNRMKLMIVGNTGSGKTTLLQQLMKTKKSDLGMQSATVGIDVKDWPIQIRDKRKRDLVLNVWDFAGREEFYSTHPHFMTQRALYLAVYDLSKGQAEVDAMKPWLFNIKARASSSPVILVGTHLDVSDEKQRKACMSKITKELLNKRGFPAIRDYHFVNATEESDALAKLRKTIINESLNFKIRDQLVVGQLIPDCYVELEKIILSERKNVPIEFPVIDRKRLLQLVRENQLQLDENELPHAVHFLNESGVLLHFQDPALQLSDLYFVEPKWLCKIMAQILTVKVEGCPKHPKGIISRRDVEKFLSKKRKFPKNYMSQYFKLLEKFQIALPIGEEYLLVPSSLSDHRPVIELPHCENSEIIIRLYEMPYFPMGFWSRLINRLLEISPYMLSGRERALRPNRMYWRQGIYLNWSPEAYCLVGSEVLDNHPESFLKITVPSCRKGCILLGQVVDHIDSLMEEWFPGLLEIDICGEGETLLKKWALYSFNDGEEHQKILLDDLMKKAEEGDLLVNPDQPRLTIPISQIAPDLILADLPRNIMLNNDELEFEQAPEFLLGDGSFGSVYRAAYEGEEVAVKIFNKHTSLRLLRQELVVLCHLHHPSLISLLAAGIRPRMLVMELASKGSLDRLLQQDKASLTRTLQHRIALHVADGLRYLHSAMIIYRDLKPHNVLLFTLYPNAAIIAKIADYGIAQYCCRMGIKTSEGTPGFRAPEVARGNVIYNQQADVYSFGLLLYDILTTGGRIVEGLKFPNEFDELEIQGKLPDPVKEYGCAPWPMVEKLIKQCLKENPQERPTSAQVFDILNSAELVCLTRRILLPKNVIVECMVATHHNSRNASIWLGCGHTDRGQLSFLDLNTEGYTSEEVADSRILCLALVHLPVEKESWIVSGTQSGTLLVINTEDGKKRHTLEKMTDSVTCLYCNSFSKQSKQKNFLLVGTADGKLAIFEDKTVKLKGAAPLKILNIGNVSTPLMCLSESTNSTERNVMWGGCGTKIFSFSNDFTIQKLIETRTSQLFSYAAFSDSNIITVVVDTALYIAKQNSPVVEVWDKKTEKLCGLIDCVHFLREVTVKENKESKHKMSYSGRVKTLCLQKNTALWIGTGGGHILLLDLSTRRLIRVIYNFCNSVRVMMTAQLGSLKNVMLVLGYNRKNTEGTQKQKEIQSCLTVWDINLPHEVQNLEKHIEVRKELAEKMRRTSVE
T2 sequence (Q5S007 whole entry R50H/M2397T): as above

One data set addresses T1, LRRK2 (Homo sapiens, UniProt Q5S007, M2397T/R50H).
T1 construct: Full-length human LRRK2 was expressed and purified based on previously developed protocols; SF tag (FLAG-tag + Twin-Strep-tag); made in house; host or cells: HEK 293T
The data set can be described thus: Competition ELISA titration. The data set is classed as binding. Particulars: AdoCbl, 250 μM; Nb 450 nM to 0.2 nM. An excerpt: LRRK2 was coated in the wells of the ELISA plate and the ELISA signal for a dilution series of the respective Nbs (detected via their C-terminal EPEA-tag) is plotted in function of the Nb concentration. […] A “no antigen control”, where no LRRK2 was coated on the bottom of the well, is also included.
Most currently described LRRK2 inhibitors bind directly to the ATP-binding pocket of the kinase domain. […] Two of the in vitro kinase activity inhibiting Nbs described herein (Nb 1 and Nb6) bind LRRK2 predominantly via interactions with the COR-B domain, thus proposing a novel mechanism of action, and thereby excluding a mechanism of inhibition similar to these previously described LRRK2 kinase inhibitors that all directly interact with the kinase domain. […] To verify and confirm that Nb1, Nb6 and Nb23 bind LRRK2 in a different mode than any known small molecule kinase inhibitor, thus also different that the reported vitamin B12 forms, a competition ELISA titration experiment was performed (FIGS. 17A-17C). In this experimental setup, the ELISA experiment was performed using a fixed concentration of LRRK2 coated on the bottom of the ELISA plate, and using a dilution series of either of the three Nbs ranging from 450 nM to 0.2 nM. Detection of Nb binding in ELISA is performed using their C-terminal EPEA-tag, resulting in a dose-response titration curve reflecting an apparent affinity of the Nbs. […] Additionally, as a positive control, a repetition of the setup was performed in presence of an excess (9 μm) of the corresponding untagged Nb.
The ELISA experiment was performed similar as described above, using a fixed concentration of LRRK2 coated on the bottom of the ELISA plate, and using a 1:4 dilution series of Nb1, Nb6 or Nb23 ranging from 450 nM to 0.2 nM. Detection of Nb binding was performed using the C-terminal EPEA tag of the Nbs as described before, resulting in a dose response titration curve reflecting an apparent affinity of the Nbs. […] A “no antigen control”, where no LRRK2 was coated on the bottom of the well, was also included. The absorbance signal (A405 nm) was read out at different time points and the A405 nm at 0.5 h (Nb6 and Nb23) or 10 h (Nb1) was plotted in function of the Nb concentration.
Consider B1, for which the “shift of the Nb ELISA titration curve in presence of AdoCbl” value (“shift … of AdoCbl” for short) is “no rightward shift is observed”.
B2: the “shift … of AdoCbl” value is “no rightward shift is observed”.
Turning to B3, the “shift … of AdoCbl” value is “no rightward shift is observed”.

Staying with this data set, now noted: large excess of MLi-2 (1 μM); Nb 450 nM to 0.2 nM.
B1: the “shift of the Nb ELISA titration curve in presence of MLi-2” value is “no rightward shift is observed”.
B2: the “shift of the Nb ELISA titration curve in presence of MLi-2” value was “no rightward shift is observed”.
Same read-out and setting: the entry for B3 is “no rightward shift is observed”.

The next data set addresses T2, LRRK2 (wild-type) (Homo sapiens, UniProt Q5S007, M2397T/R50H).
T2 construct: Full-length human LRRK2 was expressed and purified based on previously developed protocols; SF tag (FLAG-tag + Twin-Strep-tag); made in house; host or cells: HEK 293T
The data set can be described thus: In vitro peptide phosphorylation (PhosphoSens kinase) assay. Particulars: 25 μM Nb; 10 μM AQT0615 peptide. The data set is classed as biochemical. The procedure: FIGS. 4A and 4B. Modulation of in vitro kinase activity by LRRK2-targeting Nbs. (FIG. 4A) Effect of selected LRRK2-targeting Nbs on LRRK2 kinase activity measured using the fluorescence-based PhosphoSens® Protein Kinase Assay, using the LRRK2-optimized AQT0615 peptide as substrate at a fixed concentration of 10 μM, and in the presence of 1 mM or 0.1 mM ATP, respectively. The influence of the different Nbs at a concentration of 25 μM on the relative kinase activity compared to the control where no Nb was added (“No Nb”) is plotted. […] (FIG. 4B) The influence of the different Nbs (25 μM) on the relative kinase activity compared to the “No-Nb” control is plotted, either in presence of 500 μM GDP (top) or 500 μM GTPγS (bottom). […] Each bar reflects the average (±SD) of three independent measurements.
Hereto, we used the fluorescence-based PhosphoSens® Protein Kinase Assay (AssayQuant Technologies Inc.), using the LRRK2-optimized AQT0615 peptide as substrate at a fixed concentration of 10 μM. The increase in fluorescence (Δexc:360 nm; Δemm:485 nm) due to LRRK2-catalyzed peptide phosphorylation was measured continuously in time under initial rate conditions at an ATP concentration of either 0.1 and 1 mM. Subsequently, the 10 Nbs were added at a final concentration of 25 μM and the effect on the initial rate was determined in triplicate (FIG. 4A). Two negative controls, where either no Nb or an irrelevant Nb was added, were also included. […] These experiments were performed in addition with LRRK2 either in the presence of a large excess (500 μM) of GDP or GTPγS (FIG. 4B), but no significant influence of the nucleotide on the inhibition profile was observed.
The Nb concentration was varied from 200 or 150 μM to 0.006 μM in a two-fold serial dilution, while keeping the peptide and ATP substrate concentrations constant at 10 μM and 1 mM, respectively (FIG. 11A-C).
The influence of the purified Nbs on LRRK2 kinase activity was determined using the PhosphoSens® Protein Kinase Assay (AssayQuant Technologies Inc.) using the optimized LRRK2 AQT0615 peptide as substrate and according to the manufacturers' instructions. The continuous kinase assay was performed in a total volume of 50 μL in a black half area 96 well plate. Each reaction mixture contained 10 μM AQT0615 peptide substrate/probe, either 0.1 mM or 1 mM ATP and 500 μM of either GDP, or GTPγS in a buffer consisting of 50 mM HEPES pH 7.5, 0.1% Brij-35, 50 mM NaCl and 10 mM MgCl2. The reaction was initiated by addition of a final concentration of 80 nM of LRRK2 either in absence or presence of 25 μM Nb. Prior to addition, LRRK2 and the Nbs were pre-incubated for 30 minutes on ice. The LRRK2-catalyzed phosphorylation of the peptide substrate/probe is followed continuously at 30° C. in a plate reader with excitation and emission wavelength of 360 nm and 485 nm respectively. Time traces were corrected by subtracting the “no LRRK2” control. The initial rates were determined from the slope of the linear portion of the curve.
To determine IC50 values the Nb concentration was varied from 150 μM to 0.006 μM using a two-fold serial dilution. In these assays a final LRRK2 concentration of 150 nM and an ATP concentration of 1 mM was used. The relative LRRK2 activity (compared to the “no nanobody” control) was plotted against the logarithmic Nb concentration and fitted on a three-parameter log(inhibitor) vs response equation in the GraphPad Prism software. All time traces were collected in triplicate.
For B1, the “effect on in vitro LRRK2 kinase activity” value is “very clear significant inhibiting effect”.
Still for that read-out and setting: under B2 stands “very clear significant inhibiting effect”; under B4, “activates the kinase activity of LRRK2 in vitro”.
With B5, the “effect on in vitro LRRK2 kinase activity” value is “no inhibitory effect could be observed in vitro”.
As for B3, the “effect on in vitro LRRK2 kinase activity” value is given as “(to a lesser extent) Nb23 (CA13612), have a very clear significant inhibiting effect”.
